The values below come from article PMC2605743, “Lipid bilayer composition influences small multidrug transporters” (BMC Biochemistry, 2008).

pKd: −log10 of the molar value.

What is called pKd is the Kd on a negative log10 scale, so that one unit is a factor of ten. In general, Km refers to the concentration of substrate that gives half-maximal velocity. A word on the Vmax: it is the rate approached at saturating substrate.

The target in one series is T1, EmrE (Escherichia coli, UniProt P23895).
T1 construct: dimer by TPP stoichiometry
The experiment in a line: isothermal titration calorimetry. It counts as binding. In general terms: Isothermal titration calorimetry measures the heat released or taken up as one component is titrated into another.

In series [1] the test system is C[n+]1ccc(-c2cc[n+](C)cc2)cc1. The experiment in a line: purified protein. The following applies: labelled compound; DOPC liposomes without added DOPG; pH gradient (inside 7.5, outside 8); saturation incomplete, estimate.

T1 sequence (P23895 whole entry): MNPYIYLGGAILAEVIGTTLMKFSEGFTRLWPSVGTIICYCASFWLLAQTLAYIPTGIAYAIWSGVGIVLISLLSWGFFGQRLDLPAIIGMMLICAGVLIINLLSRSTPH

On to `c1ccc([P+](c2ccccc2)(c2ccccc2)c2ccccc2)cc1` [TPP], for which the pKd at EmrE was 7.44. With EmrE (Escherichia coli K-12), in series [1], the Km is 1100 ± 500 µM and the Vmax was 2 µmol/min.
